Values of other authors as cited in publication PMC9987997.

Key:
[1] = biological target: Scribble PDZ1 (Homo sapiens) (UniProt Q14160); assay: ITC
[2] = biological target: Scribble PDZ4 (Homo sapiens) (UniProt Q14160); assay: ITC

NS1 (ESEV PBM) PBM (from UniProt Q8QPI8)
Kd [1]: 21.4 µM | Kd [2]: 12.2 µM
